# Assay results from patent publication US8129197B2, “Cholesterol loaded insect cell membranes as test proteins” (SOLVO Biotechnológial ZRT., priority 2006, dated 2012).
# B1: ratBsep (Rattus norvegicus) (protein)
# chain: MSDSVILRSVKKFGEENHAFESDGSHNNDKKSRLQDKMKEGDIRVGFFELFRFSSSKDIWLMLMGGVCALLHGMAQPGILIIFGIMTDIFIKYDIERQELEIPGKACVNNTIVWINSSFHQNMTNGTVCGLVDIESEMIKFSGIYAGVGMTVLILGYFQIRLWVITGARQIRRMRKIYFRRIMRMEIGWFDCTSVGELNSRFADDIEKINDAIADQLAHFLQRMSTAMCGLLLGFYRGWKLTLVILAVSPLIGIGAAVIGLSIAKFTELELKAYAKAGSIADEVLSSIRTVAAFGGENKEVERYEKNLVFAQRWGIWKGMVMGFFTGYMWCLIFFCYALAFWYGSTLVLDEEEYTPGTLVQIFLCVILAAMNIGHASSCLEIFSTGCSAATNIFQTIDRQPVIDCMSGDGYKLDRIKGEIEFHNVTFHYPSRPDVKILDNLSMVIKPGETTALVGSSGAGKSTALQLIQRFYDPCEGMVTLDGHDIRSLNIRWLRDQIGIVEQEPVLFSTTIAENIRFGREDATMEDIVQAAKDANAYNFIMALPQQFDTLVGEGGGQMSGGQKQRVAIARALIRNPKILLLDMATSALDNESEARVQEALNKIQHGHTIISVAHRLSTVRAADVIIGFEHGVAVERGTHEELLERKGVYFMLVTLQSQGDNAHKETSIMGKDATEGGTLERTFSRGSYRDSLRASIRQRSKSQLSLLTHDPPLAVADHKSSYKDSKDNDVLVEEVEPAPVRRILKYNIPEWHYILVGSLSAAINGAVTPIYSLLFSQLLGTFSLLDKEQQRSEIHSMCLFFVILGCVSIFTQFLQGYTFAKSGELLTKRLRKFGFKAMLGQDIGWFDDLRNNPGVLTTRLATDASQVQGATGSQVGMMVNSFTNIIAALLIAFFFSWKLSLIITIFFPFLALSGAVQTKMLTGFASQDKQALEKAGQITSEALSNIRTVAGIGVEGRFIKAFEVELQTSYKTAVRKANIYGLCFAFSQGIAFLANSAAYRYGGYLIAYEGLGFSHVFRVVSSVALSATAVGRTFSYTPSYAKAKISAARFFQLLDRKPPINVYSEAGEKWDNFQGKIDFIDCKFTYPSRPDIQVLNGLSVSVNPGQTLAFVGSSGCGKSTSIQLLERFYDPDQGTVMIDGHDSKKVNIQFLRSNIGIVSQEPVLFDCSIMDNIKYGDNTKEISVERAIAAAKQAQLHDFVMSLPEKYETNVGIQGSQLSRGEKQRIAIARAIVRDPKILLLDEATSALDTESEKTVQTALDKAREGRTCIVIAHRLSTIQNSDIIAVVSQGVVIEKGTHEKLMAQKGAYYKLVITGAPIS
# B2: humanBSEP (Homo sapiens) (protein)
# chain: MSDSVILRSIKKFGEENDGFESDKSYNNDKKSRLQDEKKGDGVRVGFFQLFRFSSSTDIWLMFVGSLCAFLHGIAQPGVLLIFGTMTDVFIDYDVELQELQIPGKACVNNTIVWTNSSLNQNMTNGTRCGLLNIESEMIKFASYYAGIAVAVLITGYIQICFWVIAAARQIQKMRKFYFRRIMRMEIGWFDCNSVGELNTRFSDDINKINDAIADQMALFIQRMTSTICGFLLGFFRGWKLTLVIISVSPLIGIGAATIGLSVSKFTDYELKAYAKAGVVADEVISSMRTVAAFGGEKREVERYEKNLVFAQRWGIRKGIVMGFFTGFVWCLIFLCYALAFWYGSTLVLDEGEYTPGTLVQIFLSVIVGALNLGNASPCLEAFATGRAAATSIFETIDRKPIIDCMSEDGYKLDRIKGEIEFHNVTFHYPSRPEVKILNDLNMVIKPGEMTALVGPSGAGKSTALQLIQRFYDPCEGMVTVDGHDIRSLNIQWLRDQIGIVEQEPVLFSTTIAENIRYGREDATMEDIVQAAKEANAYNFIMDLPQQFDTLVGEGGGQMSGGQKQRVAIARALIRNPKILLLDMATSALDNESEAMVQEVLSKIQHGHTIISVAHRLSTVRAADTIIGFEHGTAVERGTHEELLERKGVYFTLVTLQSQGNQALNEEDIKDATEDDMLARTFSRGSYQDSLRASIRQRSKSQLSYLVHEPPLAVVDHKSTYEEDRKDKDIPVQEEVEPAPVRRILKFSAPEWPYMLVGSVGAAVNGTVTPLYAFLFSQILGTFSIPDKEEQRSQINGVCLLFVAMGCVSLFTQFLQGYAFAKSGELLTKRLRKFGFRAMLGQDIAWFDDLRNSPGALTTRLATDASQVQGAAGSQIGMIVNSFTNVTVAMIIAFSFSWKLSLVILCFFPFLALSGATQTRMLTGFASRDKQALEMVGQITNEALSNIRTVAGIGKERRFIEALETELEKPFKTAIQKANIYGFCFAFAQCIMFIANSASYRYGGYLISNEGLHFSYVFRVISAVVLSATALGRAFSYTPSYAKAKISAARFFQLLDRQPPISVYNTAGEKWDNFQGKIDFVDCKFTYPSRPDSQVLNGLSVSISPGQTLAFVGSSGCGKSTSIQLLERFYDPDQGKVMIDGHDSKKVNVQFLRSNIGIVSQEPVLFACSIMDNIKYGDNTKEIPMERVIAAAKQAQLHDFVMSLPEKYETNVGSQGSQLSRGEKQRIAIARAIVRDPKILLLDEATSALDTESEKTVQVALDKAREGRTCIVIAHRLSTIQNADIIAVMAQGVVIEKGTHEELMAQKGAYYKLVTTGSPIS
# B3: mouseBsep (Mus musculus) (protein)
# chain: MSDSVILRSVKKFGEENHAFESDGFHNNDKKSRLQDKKKGEGARVGFFELFRFSSSKDNWLMFMGSVCALLHGMAQPGMIIVFGILTDIFVEYDIERQELSIPEKVCMNNTIVWINSSFNQNMTNGTSCGLVDINSEVIKFSGIYAGVGVAVLILGYFQIRLWVITGARQIRKMRKFYFRRIMRMEIGWFDCTSVGELNSRFSDDINKIDEAIADQMALFLQRLSTALSGLLLGFYRGWKLTLVILAVSPLIGIGAAVIGLSVAKFTELELKAYAKAGSIADEVLSSIRTVAAFGGENKEVERYEKNLMFAQRWGIWKGMVMGFFTGYMWCLIFFCYALAFWYGSRLVLDEGEYTPGTLIQIFLCVIIAAMNIGNASSCLEIFSTGCSAASSIFQTIDRQPVMDCMSGDGYKLDRIKGEIEFHNVTFHYPSRPEVKILNNLSMVIKPGETTAFVGSSGAGKSTALQLIQRFYDPCEGMVTLDGHDIRSLNIRWLRDQIGIVEQEPVLFSTTIAENIRLGREEATMEDIVQAAKDANAYNFIMALPQQFDTLVGEGGGQMSGGQKQRVAIARALIRKPKILLLDMATSALDNESEAKVQGALNKIQHGHTIISVAHRLSTVRSADVIIGFEHGTAVERGTHEELLERKGVYFMLVTLQSQEDNTHKETGIKGKDTTEGDTPERTFSRGSYQDSLRASIRQRSKSQLSHLSHEPPLAIGDHKSSYEDRKDNDVLVEEVEPAPVRRILKYNISEWPYILVGALCAAINGAVTPIYSLLFSQILKTFSLVDKEQQRSEIYSMCLFFVILGCVSLFTQFLQGYNFAKSGELLTKRLRKFGFKAMLRQDIGWFDDLKNNPGVLTTRLATDASQVQGATGSQVGMMVNSFTNIFVAVLIAFLFNWKLSLVISVFFPFLALSGAVQTKMLTGFASQDKEILEKAGQITNEALSNIRTVAGIGVEGRFIKAFEVELEKSYKTAIRKANVYGLCYAFSQGISFLANSAAYRYGGYLIVYEDLNFSYVFRVVSSIAMSATAVGRTFSYTPSYAKAKISAARFFQLLDRKPPIDVYSGAGEKWDNFQGKIDFIDCKFTYPSRPDIQVLNGLSVSVDPGQTLAFVGSSGCGKSTSIQLLERFYDPDQGTVMIDGHDSKKVNVQFLRSNIGIVSQEPVLFDCSIMDNIKYGDNTKEISVERAIAAAKQAQLHDFVMSLPEKYETNVGIQGSQLSRGEKQRIAIARAIVRDPKILLLDEATSALDTESEKTVQLALDKAREGRTCIVIAHRLSTIQNSDIIAVMSQGVVIEKGTHKKLMDQKGAYYKLVITGAPIS
# Columns and labels:
# [1] = molecular target: T1, mouseBsep (Mus musculus, UniProt Q9QY30); experiment: Vanadate sensitive ATPase assay, mouseBsep Sf9 membrane vesicles; type: biochemical; parameters: made in house; host or cells: baculovirus infected Sf9 (Spodoptera frugiperda) cells
# T1 sequence (Q9QY30 1-1321): B3 chain
# Source text: The samples treated with cholesterol@RAMEB complex were compared with untreated vesicles.
# [2] = substrate: C[C@H](CCC(=O)NCCS(=O)(=O)O)[C@H]1CC[C@H]2[C@@H]3[C@H](O)C[C@@H]4C[C@H](O)CC[C@]4(C)[C@H]3C[C@H](O)[C@]12C; experiment: cells, lysate or membranes named
molecule,measurement,setting,value
C[C@H](CCC(=O)NCCS(=O)(=O)O)[C@H]1CC[C@H]2[C@@H]3[C@H](O)C[C@@H]4C[C@H](O)CC[C@]4(C)[C@H]3CC[C@]12C [taurochenodeoxycholate],Vanadate sensitive ATPase activity in the presence of the substrate,"[1]; cholesterol loaded mouseBsep vesicles, basal 4.7",39 nmol Pi/mg prot/min
same,Vanadate sensitive ATPase activity in the presence of the substrate,"[1]; untreated mouseBsep vesicles, basal 37",64 nmol Pi/mg prot/min
B1,Km,[2]; other: ratBsep-Sf9 CTRL,2.203 µM
B2,Km,[2]; other: humanBSEP-Sf9 CTRL,15.03 µM
B3,Km,[2]; other: mouseBsep-Sf9 CTRL,6.798 µM
